Test results from patent US20030186844A1 (MERCK, published 2003).
Where no end group is shown, it is not given here. [ ]: non-standard residue; d: D form. The star is where a group is joined. Octanoyl = CCCCCCCC(=O)*; Dap = NC[C@H](N)C(=O)O

B1: compound 21 (peptide)
peptide: GSS(Octanoyl)FL-NH2
modifications: N-terminus assumed
SMILES: CCCCCCCC(=O)OC[C@H](NC(=O)[C@H](CO)NC(=O)CN)C(=O)N[C@@H](Cc1ccccc1)C(=O)N[C@@H](CC(C)C)C(N)=O
B2: compound 18 (peptide)
peptide: GSS(Octanoyl)FLSPEHQRVQQRKESKKPPA-NH2
modifications: N-terminus assumed
SMILES: CCCCCCCC(=O)OC[C@H](NC(=O)[C@H](CO)NC(=O)CN)C(=O)N[C@@H](Cc1ccccc1)C(=O)N[C@@H](CC(C)C)C(=O)N[C@@H](CO)C(=O)N1CCC[C@H]1C(=O)N[C@@H](CCC(=O)O)C(=O)N[C@@H](Cc1c[nH]cn1)C(=O)N[C@@H](CCC(N)=O)C(=O)N[C@@H](CCCNC(=N)N)C(=O)N[C@H](C(=O)N[C@@H](CCC(N)=O)C(=O)N[C@@H](CCC(N)=O)C(=O)N[C@@H](CCCNC(=N)N)C(=O)N[C@@H](CCCCN)C(=O)N[C@@H](CCC(=O)O)C(=O)N[C@@H](CO)C(=O)N[C@@H](CCCCN)C(=O)N[C@@H](CCCCN)C(=O)N1CCC[C@H]1C(=O)N1CCC[C@H]1C(=O)N[C@@H](C)C(N)=O)C(C)C
B3: compound 19 (peptide)
peptide: GSS(Octanoyl)FLSPEHQRVQQRKES-NH2
modifications: N-terminus assumed
SMILES: CCCCCCCC(=O)OC[C@H](NC(=O)[C@H](CO)NC(=O)CN)C(=O)N[C@@H](Cc1ccccc1)C(=O)N[C@@H](CC(C)C)C(=O)N[C@@H](CO)C(=O)N1CCC[C@H]1C(=O)N[C@@H](CCC(=O)O)C(=O)N[C@@H](Cc1c[nH]cn1)C(=O)N[C@@H](CCC(N)=O)C(=O)N[C@@H](CCCNC(=N)N)C(=O)N[C@H](C(=O)N[C@@H](CCC(N)=O)C(=O)N[C@@H](CCC(N)=O)C(=O)N[C@@H](CCCNC(=N)N)C(=O)N[C@@H](CCCCN)C(=O)N[C@@H](CCC(=O)O)C(=O)N[C@@H](CO)C(N)=O)C(C)C
B4: compound 12 (peptide)
peptide: GSXFLSPEHQRVQQRKESKKPPAKLQPR
modifications: X^b at position 3: 2,3-di-amino-propionic acid in place of Ser3, its beta-amino group acylated with n-octanoic acid

Target: T1, human GHS receptor 1a (human, UniProt Q92847 1-366)
T1 sequence (Q92847 whole entry): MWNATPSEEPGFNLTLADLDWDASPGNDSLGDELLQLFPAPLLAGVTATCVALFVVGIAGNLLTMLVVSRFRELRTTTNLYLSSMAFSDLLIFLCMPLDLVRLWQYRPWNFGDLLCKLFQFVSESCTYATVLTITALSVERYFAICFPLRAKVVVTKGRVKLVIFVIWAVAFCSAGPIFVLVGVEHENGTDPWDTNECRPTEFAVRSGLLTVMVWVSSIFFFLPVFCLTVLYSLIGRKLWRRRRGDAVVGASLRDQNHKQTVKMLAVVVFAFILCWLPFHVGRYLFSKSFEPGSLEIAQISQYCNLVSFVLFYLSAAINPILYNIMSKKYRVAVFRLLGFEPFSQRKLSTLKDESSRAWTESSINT
Experiment: cell-based or functional assay

| Binder | % activation at 10 µM relative to ghrelin | Functional Assay EC50 (aequorin bioluminescence) |
| --- | --- | --- |
| B1 | 96% | 11.5 nM |
| GSS(Octanoyl)FLSPEHQRVQQ [compound 13] | 97% | 17 nM |
| B2 | 100% | 15 nM |
| B3 | 92% | 22 nM |

Target: T1, human GHS receptor 1a
Experiment: competitive filter binding vs [35S]-MK-677, membranes of HEK 293-AEQ17 cells transfected with human GHS receptor
Method: (§1) Binding of [³⁵S]-MK-677 to crude membranes prepared from HEK 293-aequorin stable cell lines was performed as described in Chen et al., Bioorg. Med. Chem. Lett. 1996, 6, 2163-2169, and Howard et al., Science 1996, 273, 974-977. Prior to the binding assay, the HEK 293-AEQ17 cells (8×10⁵ cells plated 18 hours before transfection in a T75 flask) were transfected with 22 μg of human GHS receptor plasmid using 264 μg lipofectamine.

| Binder | IC50 |
| --- | --- |
| B1 | 55 nM |
| GSS(Octanoyl)FLSPEHQRVQQ [compound 13] | 9.6 nM |
| B2 | 0.16 nM |
| B3 | 0.77 nM |

Target: T1, human GHS receptor 1a
Experiment: cell-based or functional assay
Remark: another data set of the same source

| Binder | % activation at 10 µM relative to ghrelin | Functional Assay EC50 (aequorin bioluminescence) |
| --- | --- | --- |
| GS[Dap](Octanoyl)FLSPEHQRVQQ [compound 14] | 102% | 38 nM |
| GSS(Octanoyl)FLSPEHQRVQQ [compound 13] | 97% | 17 nM |
| B4 |  | 31 nM |

Target: T1, human GHS receptor 1a
Experiment: competitive filter binding vs [35S]-MK-677, membranes of HEK 293-AEQ17 cells transfected with human GHS receptor
Remark: another data set of the same source
Method: as §1

| Binder | IC50 |
| --- | --- |
| GS[Dap](Octanoyl)FLSPEHQRVQQ [compound 14] | 8 nM |
| GSS(Octanoyl)FLSPEHQRVQQ [compound 13] | 9.6 nM |
| B4 | 0.42 nM |
